Measurements taken from the supplement of paper PMC7125110.
± gives the standard error. Variants at the floor of the assay were thinned out.

B1: glmS ribozyme (parent)
chain: AUAAAAGCGCCAGAACUACAGAAAUGUAGUUGACGAGGAGGAGGUUUAUCGAAUUUUCGGCGGAUGCCUCCAAA

Tests used:
Conditions in all cases: with glucosamine-6-phosphate
glucosamine-6-phosphate [1] = variants of: B1; experiment: self-cleavage kobs at 640 uM GlcN6P; higher = faster cleavage; RNA array
In short: (§1)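 The measurements used barcoded ribozyme variants on sequenced MiSeq chips, transcribed in situ by E. coli RNA polymerase and tracked at 37 °C with a hybridised Cy3 probe. Glucosamine-6-phosphate, 40 μM to 10 mM in HEPES/KCl/Mg(OAc)2 buffer, was flowed in while tiles were imaged over ~14 h. Baseline-normalised signals, also normalised to non-cleaving reference variants, gave per-tile medians that were fit to one- or two-exponential decays for kobs. kcat and KM resulted from weighted Michaelis–Menten fits across concentrations.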

glucosamine-6-phosphate [2] = variants of: B1; experiment: self-cleavage kobs at 2500 uM GlcN6P; higher = faster cleavage; RNA array
In short: as §1

glucosamine-6-phosphate [3] = variants of: B1; experiment: self-cleavage kobs at 10000 uM GlcN6P; higher = faster cleavage; RNA array
In short: as §1

Row | Variant | self-cleavage kobs at 640 uM GlcN6P (glucosamine-6-phosphate [1]) [s⁻¹] | self-cleavage kobs at 2500 uM GlcN6P (glucosamine-6-phosphate [2]) [s⁻¹] | self-cleavage kobs at 10000 uM GlcN6P (glucosamine-6-phosphate [3]) [s⁻¹]
1 | C11U U57G G63A | < 1e-05 | < 1e-05 | –
2 | A15C A48U C68U | < 1e-05 | – | –
3 | A12C A20C | 0.00491 ± 0.0012 | 0.0118 ± 0.0035 | –
4 | A12U U45A U65G | 0.000665 ± 0.00016 | – | –
5 | A15C G37C C70U | < 1e-05 | – | –
6 | G13C A36U G59A | < 1e-05 | – | –
7 | C16U G35C G37A | < 1e-05 | – | –
8 | G13U U56C A64U | < 1e-05 | < 1e-05 | < 1e-05
9 | A14U U65A C70U | 0.000274 ± 4.7e-05 | 0.000248 ± 9.4e-05 | 0.000945 ± 0.0002
10 | A12C G66U C70G | 7.67e-05 ± 2.5e-05 | – | –
11 | A12U G29U G37A U55A | 0.000291 ± 8.3e-05 | 0.000446 ± 9.5e-05 | –
12 | A12C C67A C68A | 7.04e-05 ± 1.6e-05 | 4.41e-05 ± 2.1e-05 | –
13 | A12G G26U G38A C68G C71A | 0.000109 ± 2e-05 | 7.22e-05 ± 2.4e-05 | –
14 | A14G C58G C71A | 0.000191 ± 5.2e-05 | 9.06e-05 ± 1.5e-05 | –
15 | A14G A33G G37A C50G C70G | 6.3e-05 ± 2.1e-05 | 4.9e-05 ± 1.5e-05 | –
16 | C16A G62U C71G | < 1e-05 | < 1e-05 | –
17 | A15U C50G C71G | 0.000108 ± 2.6e-05 | 0.000148 ± 5.1e-05 | –

Row | Variant | self-cleavage kobs at 640 uM GlcN6P (glucosamine-6-phosphate [1]) [s⁻¹] | self-cleavage kobs at 2500 uM GlcN6P (glucosamine-6-phosphate [2]) [s⁻¹] | self-cleavage kobs at 10000 uM GlcN6P (glucosamine-6-phosphate [3]) [s⁻¹]
18 | A14G G35A C71G | < 1e-05 | – | –
19 | A14G A36U C68A | < 1e-05 | 0.00425 ± 0.0019 | –
20 | C16U G37A U54C | 0.000373 ± 8.1e-05 | 0.000599 ± 0.00013 | 0.00176 ± 0.00031
21 | A15G A53C C68U | 4.28e-05 ± 2e-05 | 0.000114 ± 3.9e-05 | –
22 | A15C G29U U55A | 0.000758 ± 0.0002 | – | –
23 | A15G U56A C61G | < 1e-05 | – | –
24 | A12U G59C U69A | 0.00122 ± 0.00048 | – | –
25 | A15U A39C A42U | < 1e-05 | – | –
26 | A15G G44C G59U | < 1e-05 | < 1e-05 | –
27 | G13C A48C C68G | < 1e-05 | – | –
28 | A14U A15U G35A A39C G40U | < 1e-05 | – | –
29 | C16U A42U C58A G59C G60C | < 1e-05 | – | –
30 | A12G U30G G43C U46G | < 1e-05 | – | –
31 | A12U A39C A42U G60A | < 1e-05 | – | < 1e-05
32 | C16G G37A U45A | 8.21e-05 ± 2.1e-05 | – | –
33 | G13U G29U A52C | < 1e-05 | – | –
